In patent US20230203146A1 (Boehringer Ingelheim, published 2023):

T1: FLAG-tagged cynomolgus Ang2 (cynomolgus, UniProt O15123 19-496 (human entry), limits assumed)
T1 construct: N-terminally FLAG-tagged, conditioned medium of HEK293T cells; also called cAng2; FLAG-cAng2
T1 chain: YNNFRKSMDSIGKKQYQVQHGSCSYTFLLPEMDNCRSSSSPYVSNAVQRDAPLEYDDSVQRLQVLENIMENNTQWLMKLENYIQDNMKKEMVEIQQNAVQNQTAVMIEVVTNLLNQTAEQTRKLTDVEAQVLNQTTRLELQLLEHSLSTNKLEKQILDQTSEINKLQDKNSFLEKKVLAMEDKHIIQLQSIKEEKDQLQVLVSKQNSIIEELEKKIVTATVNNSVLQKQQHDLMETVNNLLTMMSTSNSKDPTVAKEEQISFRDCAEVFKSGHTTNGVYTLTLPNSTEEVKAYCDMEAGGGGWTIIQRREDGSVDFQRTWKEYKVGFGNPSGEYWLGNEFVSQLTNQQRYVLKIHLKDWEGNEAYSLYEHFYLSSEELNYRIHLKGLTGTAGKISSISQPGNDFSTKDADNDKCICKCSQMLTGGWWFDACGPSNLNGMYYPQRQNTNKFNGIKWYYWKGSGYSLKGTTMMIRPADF

T2: FLAG-tagged mouse Ang2 (mouse, UniProt O35608 19-496)
T2 construct: N-terminally FLAG-tagged, conditioned medium of HEK293T cells; also called mAng2; FLAG-mAng2
T2 sequence: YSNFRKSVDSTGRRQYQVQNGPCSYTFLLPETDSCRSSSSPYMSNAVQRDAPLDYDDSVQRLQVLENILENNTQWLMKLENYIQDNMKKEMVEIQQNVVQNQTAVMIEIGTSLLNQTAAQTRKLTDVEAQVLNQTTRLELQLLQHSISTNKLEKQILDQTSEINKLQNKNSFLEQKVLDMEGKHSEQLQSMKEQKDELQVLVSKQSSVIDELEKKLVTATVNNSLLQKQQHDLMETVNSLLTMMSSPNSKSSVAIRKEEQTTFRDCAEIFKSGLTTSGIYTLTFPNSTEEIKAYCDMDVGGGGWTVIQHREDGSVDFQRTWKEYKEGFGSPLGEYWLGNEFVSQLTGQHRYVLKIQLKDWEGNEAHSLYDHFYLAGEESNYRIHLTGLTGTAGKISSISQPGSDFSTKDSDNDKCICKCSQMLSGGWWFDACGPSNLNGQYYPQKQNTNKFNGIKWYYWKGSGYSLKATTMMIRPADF


Key:
[1] = biological target: T1, FLAG-tagged cynomolgus Ang2; test: competition ELISA: FLAG-cAng2 binding to coated cTie2-Fc
Method: (§1) In brief, 2 μg/mL of recombinant mouse Tie2-Fc or cyno Tie2-Fc is coated overnight at 4° C. in a 96-well MaxiSorp plate (Nunc, Wiesbaden, Germany). Coated wells are blocked with a 1% casein solution.

FLAG-tagged mouse Ang2 = biological target: T2, FLAG-tagged mouse Ang2; test: competition ELISA: FLAG-mAng2 binding to coated mTie2-Fc
Method: as §1

Binder | IC50 [1] | IC50 (FLAG-tagged mouse Ang2)
VHH 00927 (VHH, not shown: small tags and cut ends) VHH: EVQLVESGGGLVQPGGSLRLSCAASGFALDYYAIGWFRQAPGKEREGVSCISSSGGITYYADSVKGRFTISRDNSKNTVYLQMNSLRPEDTAVYYCATDSGGYIDYDCRGLGYDYWGQGTLVTVSS | 0.33 nM | 0.19 nM
VHH 00931 (VHH, not shown: small tags and cut ends) VHH: EVQLVESGGGLVQPGGSLRLSCAASGFALDYYAIGWFRQAPGKEREGVSCISSSGGITYYADSVKGRFTISRDNSKNTVYLQMNSLRPEDTAVYYCATESGGYIDYDCSGLGYDYWGQGTLVTVSS | 0.29 nM | 0.15 nM
VHH 00926 (VHH, not shown: small tags and cut ends) VHH: EVQLVESGGGLVQPGGSLRLSCAASGFALDYYAIGWFRQAPGKEREGVSCISSSGGITYYADSVKGRFTISRDNSKNTVYLQMNSLRPEDTAVYYCATDSGGYIDYDCQGLGYDYWGQGTLVTVSS | 0.29 nM | 0.2 nM

Continued by falling IC50 [1], values first:

IC50 [1] | IC50 (FLAG-tagged mouse Ang2) | Binder
0.31 nM | 0.17 nM | VHH 00930 (VHH, not shown: small tags and cut ends) VHH: EVQLVESGGGLVQPGGSLRLSCAASGFALDYYAIGWFRQAPGKEREGVSCISSSGGITYYADSVKGRFTISRDNSKNTVYLQMNSLRPEDTAVYYCATESGGYIDYDCRGLGYDYWGQGTLVTVSS
0.25 nM | 0.15 nM | VHH 00929 (VHH, not shown: small tags and cut ends) VHH: EVQLVESGGGLVQPGGSLRLSCAASGFALDYYAIGWFRQAPGKEREGVSCISSSGGITYYADSVKGRFTISRDNSKNTVYLQMNSLRPEDTAVYYCATESGGYIDYDCQGLGYDYWGQGTLVTVSS
0.23 nM | 0.15 nM | VHH 00920 (VHH, not shown: small tags and cut ends) VHH: EVQLVESGGGLVQPGGSLRLSCAASGFALDYYAIGWFRQAPGKEREGVSCISSSGGITYYADSVKGRFTISRDNSKNTVYLQMNSLRPEDTAVYYCATDSGGYIDYDCMGLGYDYWGQGTLVTVSS
